Results taken from PMC5677083, “Characterization of ApoJ-reconstituted high-density lipoprotein (rHDL) nanodisc for the potential treatment of cerebral β-amyloidosis” (Scientific Reports, 2017).

Target: the molecule itself
Test: SEC; purified rApoJ on a size exclusion column; wide peak at 12-16 ml and a homogeneous peak at 16-18 ml (maximum 16.5 ml) of the elution volume; column and buffer are in the Supplementary Information

B1: recombinant human ApoJ (rApoJ), free (non-lipidated) (natural protein)
chain 1: DQTVSDNELQEMSNQGSKYVNKEIQNAVNGVKQIKTLIEKTNEERKTLLSNLEEAKKKKEDALNETRESETKLKELPGVCNETMMALWEECKPCLKQTCMKFYARVCRSGSGLVGRQLEEFLNQSSPFYFWMNGDRIDSLLENDRQQTHMLDVMQDHFSRASSIIDELFQDRFFTREPQDTYHYLPFSLPHRRPHFFFPKSRIVR
chain 2: SLMPFSPYEPLNFHAMFQPFLEMIHEAQQAMDIHFHSPAFQHPPTEFIREGDDDRTVCREIRHNSTGCLRMKDQCDKCREILSVDCSTNNPSQAKLRRELDESLQVAERLTRKYNELLKSYQWKMLNTSSLLEQLNEQFNWVSRLANLTQGEDQYYLRVTTVASHTSDSDVPSGVTEVVVKLFDSDPITVTVPVEVSRKNPKFMETVAEKALQEYRKKHREE
notes: apolipoprotein J (clusterin), human, beta chain: cut product of the precursor, disulfide-bonded to the alpha chain; apolipoprotein J (clusterin), human, alpha chain: cut product of the precursor, disulfide-bonded to the beta chain; Heterodimer of alpha and beta chains (about 40 kDa each, about 77 kDa non-reduced); They are written on the alpha chain on the surmise that they sit at the C-terminus …
- binding result: binds
